Data from patent US20200147215A1, “DRUG CONJUGATES WITH PHOTOCLEAVABLE SOLUBILITY MODULATORS” (priority 2017, published 2020).
Read-outs that look alike come from different tables or passages of the source.

How the values were obtained:
[1] = Solubility of non-polar-tag insulin conjugates vs insulin (shaken with PBS pH 7.2, supernatant analyzed)
Procedure: (§1) Diazo was allowed to react for 24 hours. Reaction progress may be monitored on HPLC with a C18 column.
It was hypothesized solubility would be further lowered by the Val-Val-Val peptide being allowed to pack more efficiently than in the Val-Pro-Ile peptide.

[2] = Photolysis release of insulin from conjugate vs irradiation time; assay type: physicochemical
Procedure: as §1

[3] = Quantitative solubility of G2PEA-insulin and insulin in buffer at pH 7.2 and pH 5.4
[4] = stated in description, no experiment; cited from earlier work
[5] = Photolysis of G2PEA-insulin dissolved in DMSO, analyzed by gel; assay type: physicochemical; conditions: over the irradiation time period, FIG. 35
From the text: The lower band is insulin.

[6] = Isoelectric point (IEF gel); assay type: physicochemical; conditions: FIG. 33

Substance | Solubility mM ([1]; Table 3) [mM] | Solubility mg/ml ([1]; Table 3) [mg/mL] | Solubility mM ([1]; Table 5) [mM] | Solubility mg/ml ([1]; Table 5) [mg/mL] | photolysis release rate constant k ([2]; FIG. 7, insulin released into solution v. irradiation time) [min-] | photolysis release rate constant k ([2]; fit B=A0(1−exp(−kt)), FIG. 19) [min⁻¹] | Solubility ([3]; Table 7, pH 7.2 buffer) [µM] | Solubility ([3]; Table 8, pH 5.4) [µM] | isoelectric point [4] | conversion to insulin upon irradiation [5] | isoelectric point [6]
CD-insulin: drug conjugate of insulin and a cyclododecyl amine non-polar moiety joined by a DMNPE-type photocleavable group | 0.009 | 0.06 | 0.009 | 0.06 | 0.154 | 0.154 | – | – | – | – | –
insulin [reference compound] | 0.708 | 4.11 | 0.708 | 4.11 | – | – | 1053.3 ± 158.1 | 17.1 ± 2.1 | ~5.4 | – | –
G2PEA-insulin drug conjugate: drug conjugate of insulin and glutamic acid condensed with two 1-(2-Aminoethyl)pyrrolidine moieties (G2PEA), photocleavable link | – | – | – | – | – | – | – | – | – | all of the G2PEA insulin is consumed, and insulin is released | ~7
